Laboratory results from patent US20250051409A1 (NATIONAL INSTITUTE FOR BIOTECHNOLOGY IN THE NEGEV, published 2025).

T1: citrate synthase (CS), located in the matrix (endogenous) (UniProt O75390 28-466)
T1 sequence (looked up): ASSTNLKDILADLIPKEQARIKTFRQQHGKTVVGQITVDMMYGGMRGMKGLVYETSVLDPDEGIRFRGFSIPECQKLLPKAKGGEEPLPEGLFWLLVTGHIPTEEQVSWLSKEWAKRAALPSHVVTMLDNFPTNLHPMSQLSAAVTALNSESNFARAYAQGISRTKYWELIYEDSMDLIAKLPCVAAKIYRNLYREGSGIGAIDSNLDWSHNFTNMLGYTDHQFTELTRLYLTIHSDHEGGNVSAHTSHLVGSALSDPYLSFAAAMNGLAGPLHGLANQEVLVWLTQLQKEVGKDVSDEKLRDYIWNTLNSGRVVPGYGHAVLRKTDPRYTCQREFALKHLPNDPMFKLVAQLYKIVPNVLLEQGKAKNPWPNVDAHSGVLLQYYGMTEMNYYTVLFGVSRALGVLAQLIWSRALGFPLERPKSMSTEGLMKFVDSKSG

B1: PSD, endogenous, in A549 cells (enzyme)
chain: MMCQSEARQGPELRAAKWLHFPQLALRRRLGQLSCMSRPALKLRSWPLTVLYYLLPLGALRPLSRVGWRPVSRVALYKSVPTRLLSRAWGRLNQVELPHWLRRPVYSLYIWTFGVNMKEAAVEDLHHYRNLSEFFRRKLKPQARPVCGLHSVISPSDGRILNFGQVKNCEVEQVKGVTYSLESFLGPRTCTEDLPFPPAASCDSFKNQLVTREGNELYHCVIYLAPGDYHCFHSPTDWTVSHRRHFPGSLMSVNPGMARWIKELFCHNERVVLTGDWKHGFFSLTAVGATNVGSIRIYFDRDLHTNSPRHSKGSYNDFSVVGSLTR
notes: Intracellular endogenous protein, detected with antibodies in the proximity ligation assay; also called phosphatidylserine decarboxylase
B2: SMAC/Diablo, endogenous, in A549 cells and A549 xenograft tumor sections (other, human, UniProt Q9NR28 56-239, looked up)
chain: AVPIAQKSEPHSLSSEALMRRAVSLVTDSTSTFLSQTTYALIEAITEYTKAVYTLTSLYRQYTSLLGKMNSEEEDEVWQVIIGARAEMTSKHQEYLKLETTWMTAVGLSEMAAEAAYQTGADQASITARNHIQLVKLQVEEVHQLSRKAETKLAEAQIEELRQKTQEEGEERAESEQEAYLRED
notes: Intracellular endogenous protein, detected with antibodies in the proximity ligation assay

Legend:
[1] = target: T1, citrate synthase (CS), located in the …; experiment: in situ proximity ligation assay
[2] = target: T2, ATP synthase subunit 5A, inner mitochondria membrane protein (endogenous) (UniProt P25705 44-553, limits assumed); experiment: in situ proximity ligation assay
T2 construct: also called ATPsyn5a; ATP5a
T2 sequence (P25705 44-553 limits assumed): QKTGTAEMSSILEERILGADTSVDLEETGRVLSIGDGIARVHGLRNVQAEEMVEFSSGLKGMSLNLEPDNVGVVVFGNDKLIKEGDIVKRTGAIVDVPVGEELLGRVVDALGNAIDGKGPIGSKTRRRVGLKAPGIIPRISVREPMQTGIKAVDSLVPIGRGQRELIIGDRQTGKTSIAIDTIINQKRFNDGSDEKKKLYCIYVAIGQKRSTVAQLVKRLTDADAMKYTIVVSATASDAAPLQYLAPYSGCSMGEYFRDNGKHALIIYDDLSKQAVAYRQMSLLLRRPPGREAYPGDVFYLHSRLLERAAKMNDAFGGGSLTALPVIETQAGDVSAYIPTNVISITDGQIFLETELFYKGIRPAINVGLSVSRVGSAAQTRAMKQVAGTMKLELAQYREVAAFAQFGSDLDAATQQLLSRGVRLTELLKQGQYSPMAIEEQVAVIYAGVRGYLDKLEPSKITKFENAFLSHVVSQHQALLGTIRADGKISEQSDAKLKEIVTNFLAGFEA

| binding result [1] | binding result [2] | Binder |
| --- | --- | --- |
| no binding | – | B1 |
| – | no binding | B2 |
